# Measurements published in US7267822.
# Where no end group is shown, it is not given here.
# B1: peptide 2702.75-84 (peptide)
# peptide: RENLRIALRY-NH2
# modifications: also: acetate salt
# Target: recombinant hsc70 (Stressgen, Victoria, Canada)
# Test: competition ELISA on coated hsc70 against biotinylated-2702.75-84 (3 uM)
binder,measurement,value
B1,IC50,7 µM
